Here are results for one molecule from patent publication CN111484562A.

The test addresses 人CD22(hCD22)蛋白 (human) (UniProt P20273). The experiment in a line: phage ELISA, 0.5 ug/ml hCD22 coated, phage supernatant, anti-M13-HRP. In general terms: In an ELISA, binding on a coated surface is turned into a signal by an enzyme label.
Chain of UniProt P20273 (P20273 20-687 limits assumed): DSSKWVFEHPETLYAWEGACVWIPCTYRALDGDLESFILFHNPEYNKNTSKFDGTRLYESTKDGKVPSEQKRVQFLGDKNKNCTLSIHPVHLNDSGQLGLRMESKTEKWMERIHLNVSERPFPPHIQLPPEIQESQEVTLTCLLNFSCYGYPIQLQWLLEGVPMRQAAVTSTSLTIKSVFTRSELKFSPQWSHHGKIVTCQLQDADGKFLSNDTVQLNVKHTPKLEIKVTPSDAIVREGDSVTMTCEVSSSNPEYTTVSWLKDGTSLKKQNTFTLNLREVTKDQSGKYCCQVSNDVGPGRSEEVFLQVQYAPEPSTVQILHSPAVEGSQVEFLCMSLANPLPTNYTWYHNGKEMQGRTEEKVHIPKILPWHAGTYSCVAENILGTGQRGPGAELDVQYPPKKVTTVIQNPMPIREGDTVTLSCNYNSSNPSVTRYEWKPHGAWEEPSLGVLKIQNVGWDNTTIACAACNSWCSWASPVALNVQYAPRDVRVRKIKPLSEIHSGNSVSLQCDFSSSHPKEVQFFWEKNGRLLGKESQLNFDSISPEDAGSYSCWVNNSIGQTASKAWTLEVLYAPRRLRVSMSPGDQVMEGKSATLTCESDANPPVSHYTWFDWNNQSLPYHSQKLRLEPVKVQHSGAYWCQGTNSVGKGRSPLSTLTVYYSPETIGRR

B1: CD22抗体 (scFv单链抗体, 抗CD22) (scFv)
scFv: DIVMTQSPSSLSASVGDRVTITCRASQSINNYLNWYQQKPGKAPKLLISAASSLQSGVPSRFSGSGSGTDFTLTISSLQPEDFATYYCQQSYTTPLTFGGGTKVEIRGSTSGSGKPGSGEGSTKGQVQLQQSGPGLVESSQILSLTCAISGDSVSSNSATWNWIRLSPSRGLEWLGRTYYRSTWYNDYPASVKGRIIIDPDTSKNQFSLLLSSVTPEDTAVYYCARELVPRGATIGFDYWGQGTLVTVSS
For the molecule B1, the OD450 was greater than 1.5 OD450.
